Data reported in paper PMC6953809.

Tests used:
[1] = target: EGFP-rGR as used in the number and brightness assay (Fig 7) and in the ccN&B with alternative ligands (Fig 9) (rat) (UniProt P06536); experiment: number and brightness assay (N&B); living 3617 cells, transiently transfected, nucleoplasm, 100 nM corticosterone; average molecular brightness (ε) in one channel with different co-expressed partners
[2] = target: EGFP-rGR as used in the number and brightness assay (Fig 7) and in the ccN&B with alternative ligands (Fig 9) (rat) (UniProt P06536); experiment: cross-correlation number and brightness assay (ccN&B); living 3617 cells +tetracycline, transiently transfected, nuclear Bcc relative to 100 nM corticosterone (100%); 100 nM of alternative ligands (cortisol, prednisolone, dexamethasone, aldosterone) or dexamethasone 10 nM + aldosterone 10 nM, aldosterone 10 nM + RU486 1 μM, corticosterone 10 nM + RU486 1 μM

Row | average molecular brightness (ε) of EGFP-rGR paired with mCherry-rGR, percent of the +mCherry reference [1] [%] | stoichiometry N [1] | Bcc value with 100 nM cortisol, percent of the Bcc value with corticosterone [2] [%] | Bcc value with 100 nM prednisolone, percent of the Bcc value with corticosterone [2] [%] | Substance
1 | 63.3 | 2 |  |  | EGFP-rGR as used in the number and brightness assay (Fig 7) and in the ccN&B with alternative ligands (Fig 9) (from UniProt P06536 1-795) (receptor)
2 |  |  | 70 | 60 | mCherry-tagged rat mineralocorticoid receptor, transiently expressed in 3617 cells (from UniProt P22199 1-981)
